B1: Mothers against decapentaplegic homolog 4 (Homo sapiens), Q13485 (parent)
chain: MDNMSITNTPTSNDACLSIVHSLMCHRQGGESETFAKRAIESLVKKLKEKKDELDSLITAITTNGAHPSKCVTIQRTLDGRLQVAGRKGFPHVIYARLWRWPDLHKNELKHVKYCQYAFDLKCDSVCVNPYHYERVVSPGIDLSGLTLQSNAPSSMMVKDEYVHDFEGQPSLSTEGHSIQTIQHPPSNRASTETYSTPALLAPSESNATSTANFPNIPVASTSQPASILGGSHSEGLLQIASGPQPGQQQNGFTGQPATYHHNSTTTWTGSRTAPYTPNLPHHQNGHLQHHPPMPPHPGHYWPVHNELAFQPPISNHPAPEYWCSIAYFEMDVQVGETFKVPSSCPIVTVDGYVDPSGGDRFCLGQLSNVHRTEAIERARLHIGKGVQLECKGEGDVWVRCLSDHAVFVQSYYLDREAGRAPGDAVHKIYPSAYIKVFDLRQCHRQMQQQAATAQAAAAAQAAAVAGNIPGPGSVGGIAPAISLSAAAGIGVDDLRRLCILRMSFVKGWGPDYPRQSIKETPCWIEIHLHRALQLLDEVLHTMPIADPQPLD
B2: U6 snRNA-associated Sm-like protein LSm7 (Homo sapiens), Q9UK45 (parent)
chain: MADKEKKKKESILDLSKYIDKTIRVKFQGGREASGILKGFDPLLNLVLDGTIEYMRDPDDQYKLTEDTRQLGLVVCRGTSVVLICPQDGMEAIPNPFIQQQDA
B3: Putative RNA-binding protein Luc7-like 2 (Homo sapiens), Q9Y383 (parent)
chain: MSAQAQMRAMLDQLMGTSRDGDTTRQRIKFSDDRVCKSHLLNCCPHDVLSGTRMDLGECLKVHDLALRADYEIASKEQDFFFELDAMDHLQSFIADCDRRTEVAKKRLAETQEEISAEVAAKAERVHELNEEIGKLLAKVEQLGAEGNVEESQKVMDEVEKARAKKREAEEVYRNSMPASSFQQQKLRVCEVCSAYLGLHDNDRRLADHFGGKLHLGFIEIREKLEELKRVVAEKQEKRNQERLKRREEREREEREKLRRSRSHSKNPKRSRSREHRRHRSRSMSRERKRRTRSKSREKRHRHRSRSSSRSRSRSHQRSRHSSRDRSRERSKRRSSKERFRDQDLASCDRDRSSRDRSPRDRDRKDKKRSYESANGRSEDRRSSEEREAGEI
B4: Ubiquitin-like protein 4B (Homo sapiens), Q8N7F7 (parent)
chain: MFLTVKLLLGQRCSLKVSGQESVATLKRLVSRRLKVPEEQQHLLFRGQLLEDDKHLSDYCIGPNASINVIMQPLEKMALKEAHQPQTQPLWHQLGLVLAKHFEPQDAKAVLQLLRQEHEERLQKISLEHLEQLAQYLLAEEPHVEPAGERELEAKARPQSSCDMEEKEEAAADQ
partner: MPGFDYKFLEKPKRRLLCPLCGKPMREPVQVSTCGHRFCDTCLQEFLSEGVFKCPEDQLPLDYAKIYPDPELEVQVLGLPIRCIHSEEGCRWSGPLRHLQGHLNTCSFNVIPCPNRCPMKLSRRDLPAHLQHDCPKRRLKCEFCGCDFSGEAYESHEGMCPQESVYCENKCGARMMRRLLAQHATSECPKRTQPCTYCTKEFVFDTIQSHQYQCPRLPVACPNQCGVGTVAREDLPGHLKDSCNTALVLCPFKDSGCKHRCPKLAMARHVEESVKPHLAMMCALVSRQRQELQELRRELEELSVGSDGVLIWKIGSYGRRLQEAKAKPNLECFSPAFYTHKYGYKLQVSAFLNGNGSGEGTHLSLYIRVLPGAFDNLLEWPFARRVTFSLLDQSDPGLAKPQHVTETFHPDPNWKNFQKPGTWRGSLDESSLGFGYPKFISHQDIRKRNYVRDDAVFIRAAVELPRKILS
B5: RUN and FYVE domain-containing protein 1 (Homo sapiens), Q96T51-2 (parent)
chain: MMEERANLMHMMKLSIKVLLQSALSLGRSLDADHAPLQQFFVVMEHCLKHGLKVKKSFIGQNKSFFGPLELVEKLCPEASDIATSVRNLPELKTAVGRGRAWLYLALMQKKLADYLKVLIDNKHLLSEFYEPEALMMEEEGMVIVGLLVGLNVLDANLCLKGEDLDSQVGVIDFSLYLKDVQDLDGGKEHERITDVLDQKNYVEELNRHLSCTVGDLQTKIDGLEKTNSKLQEELSAATDRICSLQEEQQQLREQNELIRERSEKSVEITKQDTKVELETYKQTRQGLDEMYSDVWKQLKEEKKVRLELEKELELQIGMKTEMEIAMKLLEKDTHEKQDTLVALRQQLEEVKAINLQMFHKAQNAESSLQQKNEAITSFEGKTNQVMSSMKQMEERLQHSERARQGAEERSHKLQQELGGRIGALQLQLSQLHEQCSSLEKELKSEKEQRQALQRELQHEKDTSSLLRMELQQVEGLKKELRELQDEKAELQKICEEQEQALQEMGLHLSQSKLKMEDIKEVNQALKGHAWLKDDEATHCRQCEKEFSISRRKHHCRNCGHIFCNTCSSNELALPSYPKPVRVCDSCHTLLLQRCSSTAS
partner: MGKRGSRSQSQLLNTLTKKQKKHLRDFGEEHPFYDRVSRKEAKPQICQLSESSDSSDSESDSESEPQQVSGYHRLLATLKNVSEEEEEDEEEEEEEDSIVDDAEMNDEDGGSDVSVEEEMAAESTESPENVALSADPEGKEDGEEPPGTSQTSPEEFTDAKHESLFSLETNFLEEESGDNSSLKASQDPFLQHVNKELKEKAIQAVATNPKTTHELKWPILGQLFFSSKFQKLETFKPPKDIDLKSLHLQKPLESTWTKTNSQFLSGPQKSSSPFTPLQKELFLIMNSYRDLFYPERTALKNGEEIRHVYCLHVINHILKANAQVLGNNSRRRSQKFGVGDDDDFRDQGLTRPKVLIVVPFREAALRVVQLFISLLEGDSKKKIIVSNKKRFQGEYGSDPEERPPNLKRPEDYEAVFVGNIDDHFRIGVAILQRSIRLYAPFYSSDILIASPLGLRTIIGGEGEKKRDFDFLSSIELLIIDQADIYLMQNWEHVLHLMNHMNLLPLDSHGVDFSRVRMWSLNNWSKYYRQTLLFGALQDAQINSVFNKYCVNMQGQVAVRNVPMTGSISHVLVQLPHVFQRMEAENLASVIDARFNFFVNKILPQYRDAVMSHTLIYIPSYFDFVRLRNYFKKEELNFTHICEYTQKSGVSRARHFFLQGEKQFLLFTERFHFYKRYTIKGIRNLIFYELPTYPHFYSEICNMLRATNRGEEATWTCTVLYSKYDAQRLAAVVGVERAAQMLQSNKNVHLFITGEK
B6: Endoplasmic reticulum resident protein 27 (Homo sapiens), Q96DN0 (parent)
chain: MEAAPSRFMFLLFLLTCELAAEVAAEVEKSSDGPGAAQEPTWLTDVPAAMEFIAATEVAVIGFFQDLEIPAVPILHSMVQKFPGVSFGISTDSEVLTHYNITGNTICLFRLVDNEQLNLEDEDIESIDATKLSRFIEINSLHMVTEYNPVTVIGLFNSVIQIHLLLIMNKASPEYEENMHRYQKAAKLFQGKILFILVDSGMKENGKVISFFKLKESQLPALAIYQTLDDEWDTLPTAEVSVEHVQNFCDGFLSGKLLKENRESEGKTPKVEL
B7: Four and a half LIM domains protein 2 (Homo sapiens), Q14192 (parent)
chain: MTERFDCHHCNESLFGKKYILREESPYCVVCFETLFANTCEECGKPIGCDCKDLSYKDRHWHEACFHCSQCRNSLVDKPFAAKEDQLLCTDCYSNEYSSKCQECKKTIMPGTRKMEYKGSSWHETCFICHRCQQPIGTKSFIPKDNQNFCVPCYEKQHAMQCVQCKKPITTGGVTYREQPWHKECFVCTACRKQLSGQRFTARDDFAYCLNCFCDLYAKKCAGCTNPISGLGGTKYISFEERQWHNDCFNCKKCSLSLVGRGFLTERDDILCPDCGKDI
B8: Coiled-coil domain-containing protein 172 (Homo sapiens), P0C7W6 (parent)
chain: MSLESLFQHIIFTEHQAEESRRLMREVRSEITRCREKIKKATEELNEEKIKLESKVQQFFEKSFFLQLLKAHENALEKQYSEITNHRNMLLQTFEAIKKQMIEEEDKFIKEITDFNNDYEITKKRELLMKENVKIEISDLENQANMLKSEMKSMEHDSSQLNELQKQKSELIQELFTLQRKLKVFEDEENESICTTKYLEAEKIKISEKPQNDTECLRLKKELELYKEDDMESVYEALQTEIEFLELTLAQKDLQESK
partner: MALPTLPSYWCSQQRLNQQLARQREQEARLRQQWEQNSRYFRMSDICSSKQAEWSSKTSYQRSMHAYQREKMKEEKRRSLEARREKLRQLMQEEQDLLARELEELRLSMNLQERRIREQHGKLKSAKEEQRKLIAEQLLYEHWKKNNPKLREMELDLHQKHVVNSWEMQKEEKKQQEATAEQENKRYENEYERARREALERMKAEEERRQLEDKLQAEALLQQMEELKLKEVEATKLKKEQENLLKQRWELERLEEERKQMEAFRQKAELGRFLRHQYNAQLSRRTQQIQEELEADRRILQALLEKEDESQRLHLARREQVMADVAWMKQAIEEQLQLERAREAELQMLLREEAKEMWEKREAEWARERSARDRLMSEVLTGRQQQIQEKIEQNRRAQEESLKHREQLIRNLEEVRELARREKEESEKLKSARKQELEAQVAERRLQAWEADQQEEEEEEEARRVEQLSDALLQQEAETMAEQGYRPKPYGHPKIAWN
B9: Nucleolar protein 12 (Homo sapiens), Q9UGY1 (parent)
chain: MGRNKKKKRDGDDRRPRLVLSFDEEKRREYLTGFHKRKVERKKAAIEEIKQRLKEEQRKLREERHQEYLKMLAEREEALEEADELDRLVTAKTESVQYDHPNHTVTVTTISDLDLSGARLLGLTPPEGGAGDRSEEEASSTEKPTKALPRKSRDPLLSQRISSLTASLHAHSRKKVKRKHPRRAQDSKKPPRAPRTSKAQRRRLTGKARHSGE
B10: Zinc finger protein RFP (Homo sapiens), P14373 (parent)
chain: MASGSVAECLQQETTCPVCLQYFAEPMMLDCGHNICCACLARCWGTAETNVSCPQCRETFPQRHMRPNRHLANVTQLVKQLRTERPSGPGGEMGVCEKHREPLKLYCEEDQMPICVVCDRSREHRGHSVLPLEEAVEGFKEQIQNQLDHLKRVKDLKKRRRAQGEQARAELLSLTQMEREKIVWEFEQLYHSLKEHEYRLLARLEELDLAIYNSINGAITQFSCNISHLSSLIAQLEEKQQQPTRELLQDIGDTLSRAERIRIPEPWITPPDLQEKIHIFAQKCLFLTESLKQFTEKMQSDMEKIQELREAQLYSVDVTLDPDTAYPSLILSDNLRQVRYSYLQQDLPDNPERFNLFPCVLGSPCFIAGRHYWEVEVGDKAKWTIGVCEDSVCRKGGVTSAPQNGFWAVSLWYGKEYWALTSPMTALPLRTPLQRVGIFLDYDAGEVSFYNVTERCHTFTFSHATFCGPVRPYFSLSYSGGKSAAPLIICPMSGIDGFSGHVGNHGHSMETSP
partner: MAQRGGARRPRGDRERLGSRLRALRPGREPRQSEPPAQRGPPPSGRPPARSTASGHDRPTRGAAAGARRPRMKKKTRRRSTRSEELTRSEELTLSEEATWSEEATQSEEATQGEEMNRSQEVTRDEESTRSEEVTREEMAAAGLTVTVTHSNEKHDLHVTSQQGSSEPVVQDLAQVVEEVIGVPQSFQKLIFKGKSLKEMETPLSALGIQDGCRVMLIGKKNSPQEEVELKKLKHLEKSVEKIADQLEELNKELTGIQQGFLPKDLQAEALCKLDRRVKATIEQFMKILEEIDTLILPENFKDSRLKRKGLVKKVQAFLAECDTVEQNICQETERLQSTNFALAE

Variants of: B1
Settings: with smad9_human SMAD9, O15198
Chain of smad9_human SMAD9, O15198 (O15198 whole entry): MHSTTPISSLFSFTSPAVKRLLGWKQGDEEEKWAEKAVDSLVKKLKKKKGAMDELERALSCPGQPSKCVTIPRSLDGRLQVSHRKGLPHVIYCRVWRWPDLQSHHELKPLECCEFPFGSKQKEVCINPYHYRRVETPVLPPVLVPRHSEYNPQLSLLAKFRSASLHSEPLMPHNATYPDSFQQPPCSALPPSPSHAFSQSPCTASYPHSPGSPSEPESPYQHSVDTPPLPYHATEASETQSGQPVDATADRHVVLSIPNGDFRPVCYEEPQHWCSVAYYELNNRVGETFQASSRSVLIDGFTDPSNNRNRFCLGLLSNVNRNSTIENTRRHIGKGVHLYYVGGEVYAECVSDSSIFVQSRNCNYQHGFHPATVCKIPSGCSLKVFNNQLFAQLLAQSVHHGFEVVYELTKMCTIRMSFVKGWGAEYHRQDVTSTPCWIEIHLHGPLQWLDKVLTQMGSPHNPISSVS

Variant | effect of a mutation on the interaction
R361C | disrupting interaction strength
V350D | disrupting interaction strength
G352R | disrupting interaction strength
Y353S | disrupting interaction strength
N13S | with no effect
E330K | disrupting interaction strength
L533R | disrupting interaction strength
C324R | disrupting interaction strength

Variants of: B1
Settings: with smad3_human SMAD3, P84022
Chain of smad3_human SMAD3, P84022 (P84022 whole entry, looked up): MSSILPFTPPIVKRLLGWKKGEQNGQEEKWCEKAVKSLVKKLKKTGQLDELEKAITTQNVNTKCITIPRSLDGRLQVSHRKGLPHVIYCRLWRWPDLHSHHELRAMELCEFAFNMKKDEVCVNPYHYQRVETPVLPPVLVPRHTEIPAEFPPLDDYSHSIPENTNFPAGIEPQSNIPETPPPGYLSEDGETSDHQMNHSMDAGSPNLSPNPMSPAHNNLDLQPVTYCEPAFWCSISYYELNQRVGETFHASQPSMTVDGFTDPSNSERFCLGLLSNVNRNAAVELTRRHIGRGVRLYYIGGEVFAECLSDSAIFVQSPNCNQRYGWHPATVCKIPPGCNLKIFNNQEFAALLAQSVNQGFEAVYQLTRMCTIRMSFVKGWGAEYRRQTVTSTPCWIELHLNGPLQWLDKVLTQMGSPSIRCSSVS

Variant | effect of a mutation on the interaction
R361C | disrupting interaction strength
V350D | disrupting interaction strength
M294V | with no effect
R189C | with no effect
R531W | disrupting interaction strength
G352R | disrupting interaction strength
Y353S | disrupting interaction strength
N13S | with no effect
E330K | disrupting interaction strength
V407L | with no effect
D355N | disrupting interaction strength
L533F | disrupting interaction strength
L533R | disrupting interaction strength
V539G | disrupting interaction strength
C324R | disrupting interaction strength
R76I | with no effect
T174N | with no effect

Variants of: B1
Settings: with ews_human EWSR1, Q01844
Chain of ews_human EWSR1, Q01844 (Q01844 whole entry): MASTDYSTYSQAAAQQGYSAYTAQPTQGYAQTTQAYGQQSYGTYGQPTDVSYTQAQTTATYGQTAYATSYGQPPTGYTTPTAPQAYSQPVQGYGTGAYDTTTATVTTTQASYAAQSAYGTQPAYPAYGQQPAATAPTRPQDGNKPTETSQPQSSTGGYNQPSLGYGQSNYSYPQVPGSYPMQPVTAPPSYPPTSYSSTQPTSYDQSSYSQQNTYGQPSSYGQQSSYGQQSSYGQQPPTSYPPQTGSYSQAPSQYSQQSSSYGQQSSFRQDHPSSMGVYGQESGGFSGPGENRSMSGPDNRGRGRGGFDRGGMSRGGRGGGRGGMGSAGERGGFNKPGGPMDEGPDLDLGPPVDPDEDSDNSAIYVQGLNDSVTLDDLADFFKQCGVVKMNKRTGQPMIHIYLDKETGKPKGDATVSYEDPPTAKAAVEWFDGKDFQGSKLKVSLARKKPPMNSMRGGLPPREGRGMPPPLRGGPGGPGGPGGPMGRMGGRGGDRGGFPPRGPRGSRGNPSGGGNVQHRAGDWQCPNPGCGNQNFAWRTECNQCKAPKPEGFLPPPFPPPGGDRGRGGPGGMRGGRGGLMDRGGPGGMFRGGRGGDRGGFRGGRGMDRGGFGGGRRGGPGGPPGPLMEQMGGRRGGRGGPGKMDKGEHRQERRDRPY

Variant | effect of a mutation on the interaction
R189C | with no effect
R531W | with no effect
D355N | with no effect
L533F | with no effect
V539G | disrupting interaction strength
R76I | with no effect
T174N | with no effect

Variants of: B2
Settings: with lsm5_human LSM5, Q9Y4Y9
Chain of lsm5_human LSM5, Q9Y4Y9 (Q9Y4Y9 whole entry): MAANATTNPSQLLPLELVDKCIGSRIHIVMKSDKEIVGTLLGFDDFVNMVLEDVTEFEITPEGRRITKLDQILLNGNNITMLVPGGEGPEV

Variant | effect of a mutation on the interaction
G78A | with no effect

Variants of: B3
Settings: with nfya_human NFYA

Variant | effect of a mutation on the interaction
K368Q | with no effect

Variants of: B3
Settings: with srsf6_human SRSF6, Q13247
Chain of srsf6_human SRSF6, Q13247 (Q13247 whole entry, looked up): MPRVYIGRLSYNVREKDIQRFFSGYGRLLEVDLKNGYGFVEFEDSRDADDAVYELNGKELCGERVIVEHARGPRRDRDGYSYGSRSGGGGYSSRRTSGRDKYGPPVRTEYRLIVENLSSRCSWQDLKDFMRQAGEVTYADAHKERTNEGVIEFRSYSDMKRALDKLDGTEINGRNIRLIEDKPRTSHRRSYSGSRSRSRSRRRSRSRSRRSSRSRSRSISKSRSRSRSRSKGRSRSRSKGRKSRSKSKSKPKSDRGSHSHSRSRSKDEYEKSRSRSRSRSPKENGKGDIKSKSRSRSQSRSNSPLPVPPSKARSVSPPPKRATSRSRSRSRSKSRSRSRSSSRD

Variant | effect of a mutation on the interaction
K368Q | with no effect

Variants of: B4
Settings: with traf4_human TRAF4, Q9BUZ4

Variant | effect of a mutation on the interaction
R121H | disrupting interaction strength

Variants of: B5
Settings: with utp25_human UTP25, Q68CQ4

Variant | effect of a mutation on the interaction
C159F | with no effect

Variants of: B6
Settings: with ef1d_human EEF1D

Variant | effect of a mutation on the interaction
E122K | with no effect

Variants of: B6
Settings: with ubql1_human UBQLN1, Q9UMX0
Chain of ubql1_human UBQLN1, Q9UMX0 (Q9UMX0 whole entry): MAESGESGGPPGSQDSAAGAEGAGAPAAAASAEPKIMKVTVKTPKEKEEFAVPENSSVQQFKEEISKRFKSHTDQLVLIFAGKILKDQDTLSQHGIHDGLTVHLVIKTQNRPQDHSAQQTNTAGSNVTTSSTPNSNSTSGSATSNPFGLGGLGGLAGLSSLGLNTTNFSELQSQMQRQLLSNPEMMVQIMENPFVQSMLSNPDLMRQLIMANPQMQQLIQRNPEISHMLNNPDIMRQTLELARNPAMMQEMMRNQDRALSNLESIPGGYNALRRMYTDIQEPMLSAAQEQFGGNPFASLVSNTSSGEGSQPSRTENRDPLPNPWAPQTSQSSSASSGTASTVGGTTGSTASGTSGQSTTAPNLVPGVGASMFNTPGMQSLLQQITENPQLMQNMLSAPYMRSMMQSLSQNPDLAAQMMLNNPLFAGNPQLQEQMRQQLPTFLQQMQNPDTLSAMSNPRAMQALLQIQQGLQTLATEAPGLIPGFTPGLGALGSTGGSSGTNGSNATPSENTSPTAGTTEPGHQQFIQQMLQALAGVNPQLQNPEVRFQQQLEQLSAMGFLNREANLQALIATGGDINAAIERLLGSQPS

Variant | effect of a mutation on the interaction
E122K | with no effect

Variants of: B6
Settings: with sgta_human SGTA

Variant | effect of a mutation on the interaction
E122K | with no effect

Variants of: B7
Settings: with inca1_human INCA1, Q0VD86
Chain of inca1_human INCA1, Q0VD86 (Q0VD86 whole entry): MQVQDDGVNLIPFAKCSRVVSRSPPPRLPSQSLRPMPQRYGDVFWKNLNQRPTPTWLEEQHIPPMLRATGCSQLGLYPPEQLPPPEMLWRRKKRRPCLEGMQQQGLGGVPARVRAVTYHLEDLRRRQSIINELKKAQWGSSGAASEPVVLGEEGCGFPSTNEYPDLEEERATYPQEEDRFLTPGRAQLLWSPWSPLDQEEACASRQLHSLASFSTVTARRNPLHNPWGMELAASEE

Variant | effect of a mutation on the interaction
N95K | with no effect
A37S | with no effect

Variants of: B7
Settings: with gbg12_human GNG12, Q9UBI6
Chain of gbg12_human GNG12, Q9UBI6 (Q9UBI6 whole entry): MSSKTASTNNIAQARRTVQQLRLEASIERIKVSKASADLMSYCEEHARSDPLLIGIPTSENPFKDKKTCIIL

Variant | effect of a mutation on the interaction
R177Q | with no effect

Variants of: B8
Settings: with tchp_human TCHP

Variant | effect of a mutation on the interaction
I10V | with no effect

Variants of: B9
Settings: with cep70_human CEP70, Q8NHQ1
Chain of cep70_human CEP70, Q8NHQ1 (Q8NHQ1 whole entry): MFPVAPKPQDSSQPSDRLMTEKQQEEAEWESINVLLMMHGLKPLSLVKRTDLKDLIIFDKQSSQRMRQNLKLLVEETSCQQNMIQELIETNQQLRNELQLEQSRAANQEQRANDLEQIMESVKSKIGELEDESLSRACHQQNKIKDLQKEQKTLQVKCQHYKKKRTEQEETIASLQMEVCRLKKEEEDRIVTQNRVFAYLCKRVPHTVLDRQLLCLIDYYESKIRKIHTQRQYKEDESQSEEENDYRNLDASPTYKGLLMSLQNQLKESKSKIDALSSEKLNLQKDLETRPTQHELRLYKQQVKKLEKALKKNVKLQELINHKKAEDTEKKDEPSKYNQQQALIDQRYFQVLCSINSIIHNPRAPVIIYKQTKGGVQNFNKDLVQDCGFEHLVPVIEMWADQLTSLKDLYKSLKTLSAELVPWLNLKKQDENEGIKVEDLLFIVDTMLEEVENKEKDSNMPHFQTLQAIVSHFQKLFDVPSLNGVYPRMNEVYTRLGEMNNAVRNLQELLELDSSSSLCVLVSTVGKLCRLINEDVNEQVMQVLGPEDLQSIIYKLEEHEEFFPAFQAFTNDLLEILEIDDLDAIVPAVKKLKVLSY

Variant | effect of a mutation on the interaction
Y98H | with no effect

Variants of: B10
Settings: with bag1_human BAG1, Q99933

Variant | effect of a mutation on the interaction
N355S | with no effect
